Experiment [1] concerns the target T1, human insulin receptor (IR) on human IM-9 cells (human, UniProt P06213 28-1382).
T1 construct: whole, on cells; also called human IR
Put plainly: competition with biotinylated RHI on IM-9 cells, flow cytometry, 4 C. Here is the method: 40 µL of an IM-9 cell suspension (8×10⁶ cells/mL) was then added to each well by multichannel pipette, mixed again gently and incubated on ice for 30 min to allow competitive binding on the IR on IM-9 cells. Cells were then washed twice with 275µL of ice-cold FACS wash buffer (HBSS/2mM EDTA/0.1% Na-azide + 0.5% horse serum) by centrifuging the V-bottom plate at 3000 rpm for 3 min and aspirating the supernatant. Cells were then resuspended in 40µL of FACS staining medium containing 1:100 diluted Streptavidin-PE (Life Technologies) for 20 min on ice. Cells were then washed once with 275 µL of ice-cold FACS buffer and finally fixed with 3% paraformaldehyde for 10 min at room temp. Cells were then washed once with 275 µL of ice-cold FACS buffer and resuspended in 250µl of FACS buffer for analysis.
Next, the insulin-Fc fusion protein of SEQ ID NO: 76 was evaluated for the potential for in vivo bioactivity.
A general note: Flow cytometry measures light scatter and fluorescence of single cells or particles in a stream.

The target of experiment [2] is T2, biotinylated recombinant human Fc(gamma)RI (human, UniProt P12314 16-288, biotinylated, site not stated).
T2 construct: Bought reagent; construct not described; also called rhFc(gamma)RI; Fc(gamma) receptor I
Briefly: ELISA, fusion protein coated, biotinylated rhFc(gamma)RI at 3000 ng/mL. Here is the method:
The binding of insulin-Fc fusion proteins to the Fc(gamma)RI at pH 7.4 was conducted using an ELISA assay as follows using human Fc(gamma)RI (i.e., rhFc(gamma)RI). Insulin-Fc fusion proteins were diluted to 10 µg/mL in sodium bicarbonate buffer at pH 9.6 and coated on Maxisorp (Nunc) microtiter plates overnight at 4° C., after which the microplate strips were washed 5 times with PBST (PBS/0.05% Tween-20) buffer and blocked with Superblock blocking reagent (ThermoFisher). […] The plate was read in an ELISA plate reader at 450 nm, and the OD450 values (proportional to the binding of rhFc(gamma)RI to insulin-Fc protein) were plotted against log concentrations of rhFc(gamma)RI added to each well to generate binding curves using GraphPad Prism software. […] In order to compare differences across multiple insulin-Fc fusion proteins run at different times, the human Fc(gamma)RI assay OD450 Ratio was calculated as the OD450 value of a test insulin-Fc fusion protein compound obtained at a biotinylated-Fc(gamma)RI concentration of 3000 ng/mL, divided by the OD450 value of a reference insulin-Fc fusion protein of SEQ ID NO: 76 obtained at a biotinylated-Fc(gamma)RI concentration of 3000 ng/mL.
Background: An ELISA detects its analyte on a solid surface through an enzyme-linked reagent.

The target in a further experiment is T3, biotinylated human FcRn (human, UniProt P55899 24-297; P61769 21-119, limits assumed, biotinylated, site not stated).
T3 construct: Bought reagent (Immunitrack); composition not described; also called human FcRn receptor
Put plainly: ELISA pH 5.5, fusion protein coated, biotinylated human FcRn titrated. Here is the method: Insulin-Fc fusion proteins comprising Fc fragments were diluted to 10 µg/mL in sodium bicarbonate pH 9.6 buffer and coated in duplicate on Maxisorb ELISA plate strips for 1-2 hours at RT. The strips were then washed 5 times with PBST (PBS/0.1% Tween-20) buffer and blocked with Superblock blocking reagent (ThermoFisher). Strips for FcRn binding were then washed again 3 times with pH 5.5 MES/NaCl/Tween (50 mM MES/150mM NaCl/0.1% Tween-20) buffer before addition of the FcRn reagent (biotinylated human FcRn; Immunitrack). Serial dilutions (1:3X dilutions) of biotinylated FcRn reagent were prepared in pH 5.5 MES/NaCl/Tween/5%Superblock buffer at concentrations from 6000 ng/mL to 8.23 ng/mL and loaded at 100 µL/well using a multichannel pipettor onto the strips coated with the insulin-Fc fusion protein compounds. The assay plate was then incubated for 1.5 hours at room temperature. FcRn binding strips were washed 4 times with pH 5.5 MES/NaCl/Tween buffer and then loaded with 100 µl/well streptavidin-HRP diluted 1:10000 in pH 5.5 MES/NaCl /5%Superblock buffer. After incubating for 45 minutes, strips were washed again 5 times with pH 5.5 MES/NaCl/Tween buffer. […] The plate was read in an ELISA plate reader at a wavelength of 450 nm. […] EC50 values for each binding curve were calculated to compare between different compounds.

The target of experiment [3] is T4, biotinylated human complement component C1q (human, UniProt P02745 23-245; P02746 28-253; P02747 29-245, biotinylated, site not stated).
T4 construct: also called biotinylated-C1q
Briefly: ELISA, fusion protein coated, biotinylated human C1q at 1000 ng/mL. The method, then:
The binding of insulin-Fc fusion proteins to complement component C1q at pH 7.4 was conducted using an ELISA assay as follows using human complement component C1q. Insulin-Fc fusion proteins were diluted to 10 µg/mL in sodium bicarbonate buffer at pH 9.6 and coated on Maxisorp (Nunc) microtiter plates overnight at 4° C., after which the microplate strips were washed 5 times with PBST (PBS/0.05% Tween-20) buffer and blocked with Superblock blocking reagent (ThermoFisher). […] The plate absorbance was read in an ELISA plate reader at 450 nm (OD450), and the OD450 values (proportional to the binding of complement component C1q to insulin-Fc protein) were plotted against log concentrations of complement component C1q added to each well to generate binding curves using GraphPad Prism software. […] In order to further compare differences across multiple insulin-Fc fusion proteins run at different times, the human C1q assay OD450 Ratio was calculated as the OD450 of a test insulin-Fc fusion protein compound obtained at a biotinylated-C1q concentration of 1000 ng/mL, divided by the OD450 of a reference insulin-Fc fusion protein of SEQ ID NO: 76 obtained at a biotinylated-C1q concentration of 1000 ng/mL.

B1: insulin-Fc fusion protein of SEQ ID NO: 75 (Fc fusion)
chain: FVNQHLCGSHLVEALELVCGERGFHYGGGGGGSGGGGGIVEQCCTSTCSLDQLENYCGGGGGQGGGGQGGGGQGGGGGECPPCPAPPVAGPSVFLFPPKPKDTLMISRTPEVTCVVVDVSHEDPEVQFNWYVDGVEVHNAKTKPREEQFNSTFRVVSVLTVVHQDWLNGKEYKCKVSNKGLPAPIEKTISKTKGQPREPQVYTLPPSREEMTKNQVSLTCLVKGFYPSDIAVEWESNGQPENNYKTTPPMLDSDGSFFLYSKLTVDKSRWQQGNVFSCSVMHEALHNHYTQKSLSLSPG
B1 returned an IC50 in experiment [1] of 1730 nM. The “OD450 Ratio (reference SEQ ID NO: 76)” value stood at 0.045 in experiment [2] and 0.309 in experiment [3]. This molecule also came in with an EC50 with biotinylated human FcRn of 0.462 µg/mL.

By IC50 is commonly meant the concentration that gives 50% inhibition. Read a high IC50 as lower potency. A word on the EC50: it is the concentration needed to bring the measured effect to its halfway point. A high value points to a need for much substance.
